Experimental data: patent US12072338B2, “Pharmaceutical peptides for the treatment of inflammatory diseases” (PROTAGONISTS LTD., priority 2007, dated 2024)
Where “and” joins values, the source holds several entries; their conditions need not be identical. Equal values may be shown once.

How the values were obtained:
TECK = target: T1, TECK (Homo sapiens, UniProt O15444); experiment: Micro-array analysis of chemokine binding peptides: TECK
T1 construct: purchased 300-45
T1 sequence (O15444 24-150): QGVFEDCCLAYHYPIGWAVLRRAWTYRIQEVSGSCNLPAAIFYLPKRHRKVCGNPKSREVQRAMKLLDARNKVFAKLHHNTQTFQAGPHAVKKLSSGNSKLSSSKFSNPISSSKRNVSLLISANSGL
Experimental: (§1) (1) Printing: Chemokine (CK) solution (in water) was serially diluted with Print Reagent (GenTel BioSurfaces USA) to final concentrations of 50 μg and 25 μg/ml. BSA/BSA-Biotin control solutions (in water) were diluted with Print Reagent to 100 μg/ml. Amplified stock of M13 phage control (M13KEgIII Cloning Vector, New England Biolabs, Cat.No.E8101S) was stored in Tris Buffered Saline (TBS; pH7.5, 4° C.) and diluted with Print Reagent to the working titre (10^8 pfu/μl). An automated spotting robot (16 pin print tool, 0.4 mm head; BioRobotics, UK) was used to print the CK/BSA control/M13 control, 5 repeats per sample (CK 25 μg/ml and 50 μg/ml; BSA 100 μg/ml; M13 20 μl), on PATH Protein Microarray Slides (GenTel, Prod.No. 2-1005/-1025) at […], and 50-70% relative humidity. Printed micro-array slides were stored at Room Temperature (RT) or 4° C. for at least 24 h before use.
(§2) (2) Blocking: Block Buffer (500 μl/partition; PATHblock, GenTel, Prod.No. 2-1014) was applied to the slide for 1 hour at room temp (RT). After removal of Block Buffer, the slide was air dried for 25 minutes;
(§3) (3) Phage Presented Peptide Binding: Amplified recombinant phage stock was stored in TBS and diluted with Wash Buffer to working titer (10^7 pfu/μl). Recombinant phage suspension (300 μl) was applied per partition and incubated at RT for 1 hour with gentle agitation.
(§4) (4) First Washing: The slides were washed twice with Wash Buffer 300 μl/partition).
(§5) (5) Primary Antibody (Ab) Labeling: The slides were incubated with the Primary Ab (1 mg/ml diluted ×2500 (Wash Reagent), 300 μl; Mouse Anti-M13 monoclonal Ab; Amersham Biosciences, UK; Product Code 27-9420-01) for 45 minutes at RT.
(§6) (6) Second Washing: The slides were washed twice with Wash Buffer (300 μl/partition).
(§7) (7) Secondary Ab Labeling: The slides were incubated with Secondary Ab (1.5 mg/ml diluted ×5000 (Wash Reagent), 300 μl; Cy3-conjugated AffiniPure Goat Anti-Mouse IgG; Jackson ImmunoReserch Labs, USA; Product Code 115-165-062).
(§8) (8) Third Washing: The slides were washed twice with Wash Buffer (300 μl/partition).
(§9) (9) Rinse: the slides were rinsed twice with Rinse Buffer (PATHrinse, GenTel, Prod.No. 2-1018) then dried well.
(§10) (10) Scanning: The peptide-bound, labeled slide was scanned (Laser Intensity 80%, Gain 80%, Resolution 10 μm) with a ScanArray Life Scanner (Packard BioChip Technologies, USA).
(§11) (11) Analysis: Quantitative analysis of micro-array was performed by the SpotReader program of Niles Scientific (USA) and presented as Relative Fluorescence (RF) as a function of CK concentration. Micro-array readout (Cy3 fluorescence) was quantified to determine the relative binding affinities of a CBP for the CKs and by inference, the specificity of the CBP for binding to a CK.

MCP-4 = target: T2, MCP-4 (Homo sapiens, UniProt Q99616); experiment: Micro-array analysis of chemokine binding peptides: MCP-4; conditions: limit = start of the upper 75% of that peptide's response range
T2 construct: purchased 300-24
Experimental: as §1, §2, §3, §4, §5, §6, §7, §8, §9, §10, §11

[1] = tested on: Adjuvant-Induced Arthritis (AIA) rats; experiment: Adjuvant Induced Arthritis (AIA) rat model, Clinical Score; format: in vivo; conditions: for maximal anti-inflammatory effect: 25 μg IP on days 7-18
Experimental: Peptides were tested in a rat model of AIA for their anti-inflammatory effects.
Disease Induction: AIA was induced in female Lewis rats aged 7-8 weeks by injection of heat-killed Mycobacerioum tuberculosis (Mt strain H37Ra, Difco Laboratories, USA) dispersed in incomplete Freund's adjuvant to a final concentration of 10 mg/ml (100 μl) at the base of the tail on day 0.
Measurement: Clinical Score (CS, 0-4) for each limb based on (a) joint inflammation, (b) redness, (c) deformity.
Efficacy Protocol 1 (5 rats per group). Peptide/control compound was injected intra-peritoneally (IP, 200 μl) on days 7-11 and 14-18.
Rats were sacrificed (CO2 inhalation) on day 43.
Efficacy Protocol 2 (8 rats per group). Group 1: peptide/PBS was injected intra-peritoneally (IP, 200 μl) on days 7-18; Group 2: PBS was injected IP on days 7-18; Group 3: Dexamethasone (Dexa) was injected IP on days 11 (Clinical Score (CS)1) and 13. Rats were sacrificed on day 43.
Combination Efficacy Protocol 1 (8 rats per group). Group 1: peptide injected IP on days 7-18; Group 2: PBS injected IP on days 7-18; Group 3: Dexa injected IP on day 11 (CS 1) and day 13; Group 4: Dexa injected IP on days 11 and 13 then peptide injected on days 14-22; Group 5: Dexa injected IP on days 11 and 13 then PBS injected on days 14-22.
(§12) Combination Efficacy Protocol 2 (8 rats per group). Group 1: peptide injected IP on days 7-18; Group 2: PBS injected IP on days 7-18; Group 3: Dexa injected IP on day 11 (CS 1) and day 13 then PBS on days 14-22; Group 4: PBS injected IP on days 7-10,12,14; Dexa injected on days 11, 13. Peptide injected on days 15-19.
as §12, with “Protocol 3” for “Protocol 2”, “4: peptide” for “4: PBS”
Control Reagents for Adjuvant Induced Arthritis: Anti-Inflammatory Control: Dexamethasone Sodium Phosphate (Dexacort Forte, Teva) was dissolved in Phosphate Buffer Saline (PBS, GIBCO) to a final concentration of 1 mg/ml and injected in 200 μl (200 μg).
Negative Control: Phosphate Buffer Saline (PBS).

I-309 = target: T3, I-309 (Homo sapiens, UniProt P22362); experiment: Micro-array analysis of chemokine binding peptides: I-309; conditions: limit = start of the upper 75% of that peptide's response range
T3 construct: purchased 300-37
T3 sequence (P22362 24-96): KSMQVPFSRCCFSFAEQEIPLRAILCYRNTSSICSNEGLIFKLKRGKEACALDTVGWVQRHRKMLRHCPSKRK
Experimental: as §1, §2, §3, §4, §5, §6, §7, §8, §9, §10, §11

Eotaxin 3 = target: T4, Eotaxin 3 (Homo sapiens, UniProt Q9Y258); experiment: Micro-array analysis of chemokine binding peptides: Eotaxin 3; conditions: limit = start of the upper 75% of that peptide's response range
T4 construct: purchased 300-48
T4 sequence (Q9Y258 24-94): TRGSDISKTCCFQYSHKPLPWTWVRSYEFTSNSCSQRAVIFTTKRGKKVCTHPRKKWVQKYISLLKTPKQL
Experimental: as §1, §2, §3, §4, §5, §6, §7, §8, §9, §10, §11

Fractalkine = target: T5, Fractalkine (Homo sapiens, UniProt P78423); experiment: Micro-array analysis of chemokine binding peptides: Fractalkine
T5 construct: purchased 300-31
T5 sequence (P78423 25-100 limits assumed): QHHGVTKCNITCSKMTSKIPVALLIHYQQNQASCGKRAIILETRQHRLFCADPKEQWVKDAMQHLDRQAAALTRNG
Experimental: as §1, §2, §3, §4, §5, §6, §7, §8, §9, §10, §11

BCA-1 = target: T6, BCA-1 (Homo sapiens, UniProt O43927); experiment: Micro-array analysis of chemokine binding peptides: BCA-1
T6 construct: purchased 300-47
T6 sequence (O43927 23-109): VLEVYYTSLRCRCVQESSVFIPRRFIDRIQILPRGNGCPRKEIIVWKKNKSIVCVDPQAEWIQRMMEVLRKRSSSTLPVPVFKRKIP
Experimental: as §1, §2, §3, §4, §5, §6, §7, §8, §9, §10, §11

IL-8 = experiment: Micro-array analysis of chemokine binding peptides: IL-8; conditions: limit = start of the upper 75% of that peptide's response range
Experimental: as §1, §2, §3, §4, §5, §6, §7, §8, §9, §10, §11

Mig = target: T7, Mig (Homo sapiens, UniProt Q07325); experiment: Micro-array analysis of chemokine binding peptides: Mig; conditions: limit = start of the upper 75% of that peptide's response range
T7 construct: purchased 300-26
T7 sequence (Q07325 23-125): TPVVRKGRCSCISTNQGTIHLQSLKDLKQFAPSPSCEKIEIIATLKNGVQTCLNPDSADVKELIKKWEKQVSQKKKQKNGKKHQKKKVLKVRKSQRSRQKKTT
Experimental: as §1, §2, §3, §4, §5, §6, §7, §8, §9, §10, §11

I-TAC = target: T8, I-TAC (Homo sapiens, UniProt O14625); experiment: Micro-array analysis of chemokine binding peptides: I-TAC; conditions: limit = start of the upper 75% of that peptide's response range
T8 construct: purchased 300-46
T8 sequence (O14625 22-94): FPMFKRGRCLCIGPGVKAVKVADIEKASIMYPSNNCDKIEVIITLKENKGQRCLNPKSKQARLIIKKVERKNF
Experimental: as §1, §2, §3, §4, §5, §6, §7, §8, §9, §10, §11

MCP-2 = target: T9, MCP-2 (Homo sapiens, UniProt P80075); experiment: Micro-array analysis of chemokine binding peptides: MCP-2; conditions: limit = start of the upper 75% of that peptide's response range
T9 construct: purchased 300-15
T9 sequence (P80075 24-99): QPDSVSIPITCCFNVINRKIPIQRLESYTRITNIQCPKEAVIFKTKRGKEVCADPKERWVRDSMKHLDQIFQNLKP
Experimental: as §1, §2, §3, §4, §5, §6, §7, §8, §9, §10, §11

SDF1-β = target: T10, SDF1-β (Homo sapiens, UniProt P48061); experiment: Micro-array analysis of chemokine binding peptides: SDF1-β
T10 construct: purchased 300-28b
Experimental: as §1, §2, §3, §4, §5, §6, §7, §8, §9, §10, §11

[2] = Dexa 200 μg IP on days 11 and 13

T10 sequence (P48061 22-93): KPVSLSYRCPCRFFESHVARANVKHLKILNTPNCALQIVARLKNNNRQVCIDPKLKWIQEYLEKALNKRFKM
Sequence of IL-8 (P10145 28-99 limits assumed): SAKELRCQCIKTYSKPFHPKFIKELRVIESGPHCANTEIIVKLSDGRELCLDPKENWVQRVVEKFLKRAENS
T2 sequence (Q99616 17-98): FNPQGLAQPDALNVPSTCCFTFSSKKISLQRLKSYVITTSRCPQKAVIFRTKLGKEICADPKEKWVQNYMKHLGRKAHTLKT

Substance	binding to TECK, stated in words (TECK)	binding to MCP-4 with relatively high affinity (Relative Fluorescence Units) (MCP-4)	maximal anti-inflammatory effect [1]	binding to I-309 with relatively high affinity (Relative Fluorescence Units) (I-309)	binding to Eotaxin 3 with relatively high affinity (Relative Fluorescence Units) (Eotaxin 3)	binding to Fractalkine, stated in words (Fractalkine)	binding to BCA-1, stated in words (BCA-1)	binding to IL-8 with relatively high affinity (Relative Fluorescence Units) (IL-8)	binding to Mig with relatively high affinity (Relative Fluorescence Units) (Mig)	binding to I-TAC with relatively high affinity (Relative Fluorescence Units) (I-TAC)	binding to MCP-2 with relatively high affinity (Relative Fluorescence Units) (MCP-2)	binding to SDF1-β, stated in words (SDF1-β)	day by which inflammation approached / was comparable with the disease, untreated group [1, 2]	day from which inflammation increased (onset of inflammation) [1, 2]	day until which inflammation was at the base line ([1]; Dexa IP on days 7-11 and 14-18, afterwards rose almost to the untreated, disease group)
WVFGVHFCK [Ph-p8.77]	bound	> 15,000 RFU	23%	> 15,000 RFU	> 15,000 RFU	bound	bound	> 15,000 RFU	> 15,000 RFU	> 15,000 RFU	> 15,000 RFU	bound			
WVFGNMICK [P8 Rat]			40%												
Dexamethasone Sodium Phosphate [reference compound]													21 days and 28 days	15 days and 14 days	24 days
